Measured values from the DeepSol protein solubility set.

Experiment: soluble on expression in E. coli; label from the status in PepcDB or PDB records

Row | Sequence | soluble on expression in E. coli
1 | MKKLAILLVCAAMLASCNGLGGGSKDLKAENDSLLMELTQRNAELDEMMGTFNEVQEGFRKINAAESRVDLTRGTISENSATAKQQIASDIEFITKQMEENKAQIAKLQAMLKSSKNNSAQLKKAVESLTQELVAKTQRIEELQAELASKNIRIQELDAAVTGLTADKESLAAENEAKAKTVAEQDKAINSAWFVFGTKSELKTQKILEKGDVLKSADFNKDYFTQIDIRTTKEIKLYSKRAELLTTHPAKSYELVKDDKGQLTLKITNPKEFWSVSKYLVIQVK | not soluble
2 | MKKLITALSLVLVSYASMAAQECSLDFVKSAPNSRYLYSDLGVVTDLKTGLTWMRCPVGMTWDMAQKACSGEAQKVTWQNALLTAEQIRNASGNHVLHNFADKKQWRLPNIKELVTLTERACFHPSMNGTAFESAYSLETGDLGSYIWSNTPGTDARQIMTFESVNGDVIGYSPEANQFSVLLVTDEDLEHHHHHH | not soluble
3 | MKKLLFFLFTLVVLASGCGKKNTFTLEGSIKGLPSDTILVFYQEPDYKLDTILLSKGKFTYTITPDTFTIFSLLLGEKQILPIYADKGESVTLNGMVGKIEVKGKGENAQLAKHIQYLSTLENNKAAVMTAVDSLIKTNPSSYSNIYLIDKYYVQDSLPDYNHIDQLIKGLSGIIKDTPYIIELQNKLSEKKELTEHRYVSNISCTDKKGKTVNWNSVKGKYVLLDFWASWNKESIATQDSLVSVQKALKKDKFVIISLSLDLDKKEWMEKIIQRDTTQWKQVCDFKGWNNSIVKQQGITRIPANILIGPDKRVITQDIRGKELIDKVRQLTEQDKEKEKAAKEAERARKRQNKK | not soluble
4 | MKKLMLGNEAVARGAYEAGVLVATAYPGTPSTEITEYISKYSEINSEWSVNEKVALEVGIGSAIAGARTIVSMKHVGLNVAADPLMTVAYTGINAGLLIVVADDPSMHSSQNEQDTRYYGMFAKIPVLEPSDSQECKDFVKLGFEISEKFDTPVILRLSTRVSHSQSLVELEEKESIELKPYD | not soluble
5 | MKKLNFSELNWINTPENFSITENELVIHTSPDTDFWRGTYYGLEYNNAPGIVMRSEERFWTLKSKVAFESNMFFDQCGMLIYIDDNNWMKSGIEYQSNGYQQLFSVVTNNGFSDWAMTNLDRVTQTMYYRLSRRGNDFLLEHSADGKIFNMMRMFHMFQAYTTVQFGFFASSPGDSSFAAHFSEIEWTECLWDAHTSSRFLEHHHHHH | not soluble
6 | MKKPNHSGSGQIRIIGGQWRGRKLPVPDSPGLRPTTDRVRETLFNWLAPVIVDAQCLDCFAGSGALGLEALSRYAAGATLIEMDRVVSQQLIKNLATLKAGNARVVNSNAMSFLAQKGTPHNIVFVDPPFRRGLLEETINLLEDNGWLADEALIYVESEVENGLPTVPANWSLHREKVAGQVAYRLYQHEAQGESDAD | not soluble
7 | MKKVLLIVISILFGSVLVGCQMNESNKTQDKIQSITGSVAYRERIALPDNAVVTVYLQDVSLADAPATVIAKQNFITNGMQVPLEFNLAYDSRKIKASHRYSVSARIEVDGKLRFITDTHYGVITDPEATKHVPMMLIGVHGE | not soluble
8 | MKKVLLTAINSQFIHSNLAVRYLKAYAKELDLQIKIREFSINDRLERIFEEIMYEKPDIVGFSCYIWNGEYVDKLSNLIKRVDENIQIFYGGPEVSFDCREVLLNSSADFLIEGEGEESFKEFLKWKLENGFDRKDLKIKGVYSKCQNQILYGGQREALDMNLLEFPYNEEDDLSNKIIYYEASRGCPFNCKYCLSSTIRGVRFLNPDRVKRELKFLADKKVKIVKFVDRTFNANPKFAMEIWKYLMELDTETVFHFEITADIVTEDEIELLKNAPKGRFQFEVGVQSTNNEVLKNVNRYIEFKDIKEIVMKLEEGKNINQHLDLIVGLPGEDFNSFKNSFNDVYSIGPEKLQIGFLKLLKGSSMREEAEKWGMSYSPYHPYEILRTKDISFEEISILKRVDSVVDKYYNTGKFDHIVEFLISDFETPFDFYYKLSEYFYHKGYFNRSISASEYYKVFLDFNKEILKKENDVLEEIVKFEYLKFNKKSWLPPFLTRLNVKEEEQAIKEKLKEENKFDKKLHLEKFSIDIDRYITKKEIVYKEMYHIFN | not soluble
9 | MKKVRKLYEGKAKIVYETDEKDKLILEFKDVATAFDGVKKEEIKGKGSLNNEISSLIFEILEDHGIKTHYIKKLSDREMLVWRAERFPVEVVVRNYAAGSFVKRYGVKEGTKLEQPLVEFFMKSDELHDPMVCINHIKVLKLAPAELVPEMEKIALKVNEILKKIFEEKGILLVDFKLEFGRLPSGELAIVDEISPDSMRLWDKSTGENWIKTDSV | soluble
10 | MKKYVCTVCGYEYDPAEGDPDNGVKPGTSFDDLPADWVCPVCGAPKSEFEAA | soluble
11 | MKLDDLNLFRQVVENGSYTAASRKTLIPVATITRRIQALEDSLDIRLLNRHARKLSLTEAGQKFYDECAPILATLVNTSEYLGEECRGAAGKLKIAAPSNLTKRMIQPILNKFMLLYPDISINLTMSNQPEQLDPTDWDIIFRVGKQRDSSLIARQIGSLEDILVASPSYLEKNSEPTHAQELHKHSLLKGNPLMRWRLTNKDGESVTITDAGRFEASELNVIRMACSNGLGITLMPDIMISQYLEEGSLIRVLSDWSANPRDIYMIYNYKDHQPEKVRLFIDFVSNHIPD | not soluble
12 | MKLDIKKDLKNIAWHCTMCGGCCDSPSVSKKDVANIAGFLKIPFDEVVKKYLVNFDGMTGRLKTSKEKCIFLDENNKCKIYRVRPIICRLRPYSVQIKDQNLVLTYDGWFLENCKGLFMGDLDPDEEYYKHAETVLKYLGEEENTPEEFFEKAKKRLKKSKKLEHHHHHH | soluble
13 | MKLFISPGACSLAPHIALRETGADFEAVKVDLAVRKTEAGEDFLTVNPSGKVPALTLDSGETLTENPAILLYIADQNPASGLAPAEGSLDRYRLLSRLSFLGSEFHKAFVPLFAPATSDEAKAAAAESVKNHLAALDKELAGRDHYAGNAFSVADIYLYVMLGWPAYVGIDMAAYPALGAYAGKIAQRPAVGAALKAEGLA | soluble
14 | MKLKHKRDDKMRFDIKKVLELAEKDFETAWRETRALIKDKHIDNKYPRLKPVYGKPHPVMETIERLRQAYLRMGFEEMINPVIVDEMEIYKQFGPEAMAVLDRCFYLAGLPRPDVGLGNEKVEIIKNLGIDIDEEKKERLREVLHLYKKGAIDGDDLVFEIAKALNVSNEMGLKVLETAFPEFKDLKPESTTLTLRSHMTSGWFITLSSLIKKRKLPLKLFSIDRCFRREQREDRSHLMSYHSASCVVVGEDVSVDDGKVVAEGLLAQFGFTKFKFKPDEKKSKYYTPETQTEVYAYHPKLGEWIEVATFGVYSPIALAKYNIDVPVMNLGLGVERLAMIIYGYEDVRAMVYPQFYEYRLSDRDIAGMIRVDKVPILDEFYNFANELIDICIANKDKESPCSVEVKREFNFNGERRVIKVEIFENEPNKKLLGPSVLNEVYVYDGNIYGIPPTFEGVKEQYIPILKKAKEEGVSTNIRYIDGIIYKLVAKIEEALVSNVDEFKFRVPIVRSLSDINLKIDELALKQIMGENKVIDVRGPVFLNAKVEIK | soluble
15 | MKLKNTLLASALLSAAAFSVHAATELTPEQAAALKPYDRIVITGRFNAIGDAVSAVSRRADKEGAASFYVVDTSEFGNSGNWRVVADVYKADAPKADAPKNRVINGIVELPKDQAVQLEPYDTVTVQGFYRSQPEVNDAITKAAKQKGAYAFYIVRQIDANQGGNQRITAFIYKQDAKKRIVQSPDAIPADSEAGRAALAQGGEAAKKVEIPGVATSASPSAEVGRFFETQSSKGGRYTVTLPDGTKVEELNKATAAMMVPFDSVKFTGNYGNMTEISYQVAKRAAKKGAKYYHITRQWQERGNNITISADLYKLEHHHHHH | soluble
